Here are results for 16 sequences from the nanobody polyreactivity screen of Harvey et al. (2022).

The data set in a line: yeast display, Sf9 membrane polyspecificity reagent, FACS + sequencing; frameworks hold sequencing errors. The procedure, abridged:
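Synthetic nanobody libraries on Saccharomyces cerevisiae BJ5465 were galactose-induced for 36–48 hours, stained 1 hour at 4 °C with 10% biotinylated, detergent-solubilized Sf9 membrane reagent and enriched on streptavidin microbeads. FACS then separated cells into low and high (top ~1%) gates by anti-HA (expression) and streptavidin (reagent binding) fluorescence. Genes were colony-PCR amplified, MiSeq 2 × 250 sequenced and CDR-length filtered. A clone's polyreactivity label is that of its gate of origin.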
Consider “QVQLVESGGGLVQAGGSLRLSCAASGSTFKTYTMGWYRQAPGKERELVAGITSGGSTSYADSVKGRFTISRDNAKNTVYLQMNSLKPEDTAVYYCAADTSYDSYEYWGQGTQVTVSS”, for which the “polyreactivity (PSR sort gate)” value is listed as “low polyreactivity”.
With “QVQLVESGGGLVQAGGSLRLSCAASGRTFTYNMGWYRQAPGKERELVAANDLRRLCEGALHNFTRQCDEYRLFTDEQPETGRYPVYYCNADPAWIWYTFDYWGQGTQVTVSS”, the “polyreactivity (PSR sort gate)” value was “low polyreactivity”.
As to “QVQLVESGGGLVQAGGSLRLSCAASGRTFTSYVMGWYRQAPGKERELVAAISWSGDSTYYADSVKGRFTISRDNAKNTVYLQMNSLKPEDTAVDYCARVPPAAYVAYDYWGQGTQVTVSS”, the “polyreactivity (PSR sort gate)” value was “high polyreactivity”.
In the case of “QVQLVESGGCLVQAGGSLRLSCAASGSTFYDYDMGWYRQAPGKERELVAAISSSVSTYYADSVKGRFTISRDNAKNTVYFQMNSLKPEDTAVYYCAADYTGVWRYDYWGQGTQVTVSS” it was “low polyreactivity”; in that of “QVQLVESGGGLVQAGGSLRLSCAASGFTFIYYAMGWYRQAPGKERELVAAISASGGSTYYADSVKGRFTISRDNSKNTVYLQMNSLKPEDTAVYYCDAYRVWYRGYPMGYWGQGTQVTVSS”, “high polyreactivity”.
In the case of “QVQLVESGGGLVQAGGSLRLSCAASGRILVVNAMGWYRQAPGKERELVASISQSGGITYADSVKGRFTISRDNAKNTVYLQMNSLKTEDTAVYYCAAKSTWEYDYWGQGTQVTVSS” it was “low polyreactivity”; in that of “QVQLVESGGGLVQAGGSLRLSCAASGGTFVSYALGWSRQAPGKERELVAAITYSGGSTYYADSVKGRFTISRDTAKNTVYLQMNSLKPEDTAVYYCAADLGRNLLHTYYYWGQGTQVTVSS”, “low polyreactivity”; in that of “QVQLVESGGGLVQAGGSLRLSCAASGFTIRSYVMGWYRQAPGKEREFVAAISYRGGGTNYADSVKGRFTISRDNAKNTVYLQMNSLKPEDTAVYYCNARSGSSKSGYYYWGQGTQVTVSS”, “high polyreactivity”.
The same measure for “QVQLVEAGGGLVQAGGSLRLSCAASGFTISSNAMGWYRQAPGKERELVAAISFNSTSTYYADSVKGRFTISRDNAKNSVYLQMNSLKPEDTAVYYCSADVPRVQSEPEYDYWGQGTQVTVSS”: “low polyreactivity”.
Regarding “QVQLVESGGGLVQAGGSLRLSCAASGSTFYSYAMGWYRQAPGKEREFVAAITDSGGSTYYADSVTGRFTISRDNAKNTVYLQMNSLKPEDTAVYYCAKRQYQSYIRGPYYYWGQGTQVTVSS”, the “polyreactivity (PSR sort gate)” value is given as “low polyreactivity”.
As to “QVQLVESGGGLVQAGGSLRLSCAASGFTFYANAMGWYRQAPGKERELVAAISRGVSTTYADSVKGRFTISRDNAKNTVYLQMNRLKPEDTAVYYCAADGNVIAQGYDYWGQGTQVTVSS”, the “polyreactivity (PSR sort gate)” value is recorded as “low polyreactivity”.
In the case of “QVQLVESGGGLVQAGGSHRLSCAASGSTFTTNAMGWYRQAPGKERELVAAISRRGGSTYYADSVKGRFTISRDNAKNTVYLQMNSLKPEDTAVYYCNAVRAEYEFDYWGQGTQVTVSS” it was “high polyreactivity”.
Take “QLQRVESGGGLVQAGGSLRLSCAASGSIFSPYAMGWYRQAPGKERELVAAISTRGGNTYYADSVKGRFTISRDNAKNTVYLQMNSLKPEDTAVYYCARKIRREGRYDYWGQGTQVTVSS”: the “polyreactivity (PSR sort gate)” value is listed as “high polyreactivity”.
“QVQLVESGGGLVQAGGSLRLSCAASGFTFYRNAMGWYRQAPGKERELVARIRGTGGRTYYADSVKGRFTISRDNAKNTVYLQMNSLKPEDTAVYYCNVGRGYSFANGDYWGQGTQVTVSS”: the “polyreactivity (PSR sort gate)” value is recorded as “high polyreactivity”.
With “QVQLVESGGGLVQAGGSLRLSCAASGYIFRVYAMGWYRQAPGKERELVAAISSGGSTYYADSVKGRFTISRDNAKNTVYLQMNSLKPEDTAVYYCAKAGLALYAFRDDYWGQGTQVTVSS”, the “polyreactivity (PSR sort gate)” value is “low polyreactivity”.
Take “QVQLVESGGGLVQAGGSLRLSCAASGRIFSFNGMGWYRQAPGKERELVAAITSSGGRTYYADSVKGRFTISRDNAKNTVYLQMNSLKPEDTAVYYCAAELAWEYYWGQGTQVTVSS”: the “polyreactivity (PSR sort gate)” value was “low polyreactivity”.
